Laboratory results: PMC8262854
Where two headings read alike, the source gives them in different places.

How the values were obtained:
[1] = biological target: Du172.17 gp140.664.R4 Env trimer (HIV-1 Du172.17 (clade C)); experiment: crystal structure

## BG505.T332N Env (pseudovirus glycan hole mutant P291T): P291T (glycan site added at N289)
N-glycosylation at N289
  other: decreases

## BG505.T332N Env (pseudovirus glycan hole mutant S241N): S241N (glycan site added)
N-glycosylation at N241
  other: decreases

## BG505.T332N Env (pseudovirus glycan hole mutant T465N): T465N (glycan site added)
N-glycosylation at N465
  other: decreases

## Du172.17 gp140.664.R4 Env trimer (complex)
[1]
  stoichiometry N: 3
